{
  "source": "patent US20150139990A1",
  "about": "(DAINIPPON SUMITOMO PHARMA, published 2015)",
  "key": {"[1]": {"biological_target": "T1, human CD81 on CD81-expressing cells (Jurkat E6.1, human PBMC, Ramos) (human, UniProt P60033 1-236)", "T1 sequence": "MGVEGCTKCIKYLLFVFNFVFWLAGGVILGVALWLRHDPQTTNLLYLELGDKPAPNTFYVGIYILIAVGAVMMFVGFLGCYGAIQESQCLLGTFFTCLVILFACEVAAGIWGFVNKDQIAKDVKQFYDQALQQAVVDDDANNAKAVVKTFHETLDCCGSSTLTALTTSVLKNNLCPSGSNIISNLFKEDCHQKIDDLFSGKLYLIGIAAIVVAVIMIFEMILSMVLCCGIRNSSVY", "assay": "cell-based or functional assay"}, "[2]": {"biological_target": "T2, human CD81 mutant N172A (human, UniProt P60033 1-236, limits assumed)", "T2 construct": "as m30; not shown: C-terminal V5 and 6xHis tags", "T2 sequence": "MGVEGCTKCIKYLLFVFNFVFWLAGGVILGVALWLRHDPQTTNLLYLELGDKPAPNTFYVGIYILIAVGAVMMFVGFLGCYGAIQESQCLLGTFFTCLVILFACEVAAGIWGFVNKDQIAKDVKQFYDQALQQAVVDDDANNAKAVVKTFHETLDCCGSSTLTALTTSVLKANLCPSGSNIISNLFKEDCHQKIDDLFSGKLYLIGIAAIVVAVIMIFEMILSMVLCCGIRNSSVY", "assay": "ELISA"}, "[3]": {"biological_target": "T3, human CD81 mutant V169A (human, UniProt P60033 1-236, limits assumed)", "T3 construct": "as m30; not shown: C-terminal V5 and 6xHis tags", "T3 sequence": "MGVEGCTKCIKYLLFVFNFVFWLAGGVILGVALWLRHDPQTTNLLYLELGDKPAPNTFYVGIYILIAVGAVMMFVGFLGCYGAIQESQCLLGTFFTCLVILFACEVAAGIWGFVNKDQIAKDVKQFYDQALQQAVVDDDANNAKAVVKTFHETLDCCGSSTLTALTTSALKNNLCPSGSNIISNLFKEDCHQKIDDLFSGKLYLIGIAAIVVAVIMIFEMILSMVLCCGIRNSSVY", "assay": "ELISA"}, "[4]": {"biological_target": "T1, human CD81 on CD81-expressing cells …", "assay": "FMAT on CD81-expressing and non-expressing cells", "source_text": "A complete human antibody library n-CoDeR (Nature Biotechnol. 18: 852-856, 2000; WO98/32845) was screened for specific binding with human CD81, using human CD81 protein and human CD9 protein having a homology with CD81, or human CD81-expressing and -non-expressing cells to obtain human antibody fragments (scFv) specifically binding with human CD81. First, phages bound to biotinylated CD81 protein in the presence of competitive CD9 protein were recovered using streptoavidin-labeled magnetic beads. Unbound phages were washed out and the bound phages were eluted by trypsin treatment. Panning was carried out three times, and the selected phage library was expressed as an antibody fragment in E. coli. […] FMAT is performed by adding antibody fragments to the cells immobilized on the wells of 384-well culture plate, and detecting its binding using a fluorescent-labeled anti-scFv antibody. As a result of the screening, two human CD81-specific human antibody fragments were selected. The nucleotide sequences (scFv-002-A07: SEQ ID NO:33, scFv-005-001: SEQ ID NO:35) and the deduced amino acid sequences (scFv-002-A07: SEQ ID NO:34, scFv-005-001: SEQ ID NO:36) of these fragments were determined by sequencing."}},
  "data": [
    {"binder": "003-A10 (antibody, human IgG4 S228P, lambda, V domains shown, IgG4 S228P) VH: EVQLLESGGGLVQPGGSLRLSCAASGFTFSSNYMSWVRQAPGKGLEWVSYISSSSTYTDYADSVKGRFTISRDNSKNTLYLQMNSLRAEDTAVYYCARYSYGRDTFDYWGQGTLVTVSS VL: QSVLTQPFSASGTPGQRVTISCTGSTSNIGAGYDTHWYQQLPGTAPKLLIYGNSNRPSGVPDRFSGSKSGTSASLAISGLRSEDEADYYCQSYDTNLSVWVFGGGTKLTVLG", "values": [
      {"measurement": "Jurkat chemotaxis (% of control IgG4) at 0.001 µg/mL", "setting": "[1]", "value": 104, "unit": "%"},
      {"measurement": "Jurkat chemotaxis (% of control IgG4) at 0.01 µg/mL", "setting": "[1]", "value": 93, "unit": "%"},
      {"measurement": "Jurkat chemotaxis (% of control IgG4) at 0.1 µg/mL", "setting": "[1]", "value": 15, "unit": "%"},
      {"measurement": "Jurkat chemotaxis (% of control IgG4) at 1 µg/mL", "setting": "[1]", "value": 3, "unit": "%"},
      {"measurement": "Jurkat chemotaxis (% of control IgG4) at 10 µg/mL", "setting": "[1]", "value": 3, "unit": "%"},
      {"measurement": "relative binding affinity", "setting": "[2]", "value": "< 20", "unit": "%"},
      {"measurement": "relative binding affinity", "setting": "[3]", "value": "< 20", "unit": "%"}
    ]},
    {"binder": "scFv-002-A07 (scFv, antibody fragment from the n-CoDeR library, expressed in E. coli) scFv: EVQLLESGGGLVQPGGSLRLSCAASGFTFSSNYMSWVRQAPGKGLEWVSYISSSSTYTDYADSVKGRFTISRDNSKNTLYLQMNSLRAEDTAVYYCARYSYGRDNFDYWGQGTLVTVSSGGGGSGGGGSGGGGSQSVLTQPPSASGTPGQRVTISCTGSTSNIGAGYDTHWYQQLPGTAPKLLIYGNSNRPSGVPDRFSGSKSGTSASLAISGLRSEDEADYYCQSYDTNLSVWVFGGGTKLTVLGEQKLISEEDLSGSAAAHHHHHH", "values": [
      {"measurement": "binding result", "setting": "[4]", "value": "binds"}
    ]}
  ]
}
